Experimental findings from US20220033484A1 (FAPON BIOTECH, published 2022) are described below.

Sequences and labels used below:
B1: Mutation 1-21 (antibody, V domains shown)
VH: EVQLQQSGPELVKPGASVKMSCKASGYTFTLYVVHWVKQKPGQGLEWIGYIYPYIDGTKYNEKFKGKATLTVDKSSSTAFMELSSLTSEDSAVYYCARSGYGQYGLAWLAYWGQGTLVTVSA
VL: QAVVIQESALTTSPGETVTLTCRSSTGAATTSNYANWVQEKPDHLFTGLIGGSQNRAPGVPARFSGSLIGDKAALTITGAQTEDEAIYFCALVYSNQWVFGGGTKLTVLG
notes: Built as m8
B2: Mutation 1-25 (antibody, V domains shown)
VH: B1 VH with L31I, V34L, I55L, Q103N
VL: B1 VL with Q97H
notes: Built as m8
B3: Mutation 1-38 (antibody, V domains shown)
VH: B1 VH with L31I, V34I, Q103G
VL: B1 VL with A29V, N33Q, Q54N, Q97N
notes: Built as m8
B4: Mutation 1-47 (antibody, V domains shown)
VH: B1 VH with V34I, Y52N, I55L, Q103G
VL: B1 VL with N33Q, Q97H
notes: Built as m8
B5: Mutation 1-26 (antibody, V domains shown)
VH: B1 VH with L31I, V34I, I55L, Q103G
VL: B1 VL with A29V, N33Q, Q54N
notes: Built as m8
B6: Mutation 1-32 (antibody, V domains shown)
VH: B1 VH with L31I, V34I, Y52N, I55L, Q103G
VL: B1 VL with Q54N, Q97H
notes: Built as m8
B7: Mutation 1-40 (antibody, V domains shown)
VH: B1 VH with L31I, V34L, Y52Q, I55L, Q103N
VL: B1 VL with A29V, Q54N, Q97N
notes: Built as m8
B8: Mutation 1-27 (antibody, V domains shown)
VH: B1 VH with I55L
VL: B1 VL with A29V, Q97H
notes: Built as m8
B9: Mutation 1-53 (antibody, V domains shown)
VH: B1 VH with L31I, Q103G
VL: B1 VL with A29V
notes: Built as m8
B10: Mutation 1-31 (antibody, V domains shown)
VH: B1 VH with L31I, V34L, Y52N, Q103N
VL: B1 VL with N33Q, Q97N
notes: Built as m8
B11: Mutation 1-29 (antibody, V domains shown)
VH: B1 VH with V34I, Y52Q, Q103G
VL: B1 VL with N33Q, Q97N
notes: Built as m8
B12: Mutation 1-22 (antibody, V domains shown)
VH: B1 VH with V34L, Q103N
VL: B1 VL with A29V, N33Q, Q54N, Q97N
notes: Built as m8
B13: Mutation 1-43 (antibody, V domains shown)
VH: B1 VH with L31I, V34L, Q103N
VL: B1 VL with N33Q
notes: Built as m8
B14: Mutation 1-30 (antibody, V domains shown)
VH: B1 VH with L31I, Y52Q, I55L
VL: B1 VL with N33Q, Q54N
notes: Built as m8
B15: Mutation 1-44 (antibody, V domains shown)
VH: B1 VH with L31I, V34I, Y52Q, Q103G
VL: B1 VL with Q54N, Q97N
notes: Built as m8
B16: Mutation 1-35 (antibody, V domains shown)
VH: B1 VH with V34I, Y52Q, I55L, Q103G
VL: B1 VL
notes: Built as m8
B17: Mutation 1-37 (antibody, V domains shown)
VH: B1 VH with L31I, V34L, Y52N, I55L, Q103N
VL: B1 VL with A29V, N33Q
notes: Built as m8
B18: Mutation 1-45 (antibody, V domains shown)
VH: B1 VH with Y52Q, I55L
VL: B1 VL with A29V, N33Q
notes: Built as m8
B19: Mutation 1-46 (antibody, V domains shown)
VH: B1 VH with L31I, V34L, Y52N, Q103N
VL: B1 VL with A29V, Q54N, Q97N
notes: Built as m8
B20: Mutation 1-28 (antibody, V domains shown)
VH: B1 VH with V34L, I55L, Q103N
VL: B1 VL with N33Q, Q54N
notes: Built as m8
B21: Mutation 1-54 (antibody, V domains shown)
VH: B1 VH with L31I, Y52N, I55L
VL: B1 VL with Q54N
notes: Built as m8
B22: Mutation 1-52 (antibody, V domains shown)
VH: B1 VH with L31I, Y52N, I55L, Q103N
VL: B1 VL with N33Q, Q54N, Q97N
notes: Built as m8
B23: Mutation 1-23 (antibody, V domains shown)
VH: B1 VH with V34I, Q103G
VL: B1 VL with A29V, Q97H
notes: Built as m8
B24: Mutation 1-51 (antibody, V domains shown)
VH: B1 VH with L31I, Y52Q
VL: B1 VL with N33Q, Q54N, Q97H
notes: Built as m8
B25: Mutation 1-48 (antibody, V domains shown)
VH: B1 VH with L31I
VL: B1 VL with Q54N
notes: Built as m8
B26: Mutation 1-50 (antibody, V domains shown)
VH: B1 VH with L31I, V34I, Q103G
VL: B1 VL with N33Q, Q97H
B27: Mutation 1-36 (antibody, V domains shown)
VH: B1 VH with L31I, Y52N
VL: B1 VL with A29V, N33Q, Q54N, Q97H
notes: Built as m8; CDR-VL1 cell printed 'VQ', read as V/Q
B28: Mutation 1-33 (antibody, V domains shown)
VH: B1 VH with Q103G
VL: B1 VL with N33Q, Q97N
notes: Built as m8
B29: Mutation 1-24 (antibody, V domains shown)
VH: B1 VH with L31I, I55L
VL: B1 VL with N33Q, Q54N, Q97N
notes: Built as m8
B30: Mutation 1-39 (antibody, V domains shown)
VH: B1 VH with Y52Q, I55L
VL: B1 VL with A29V
notes: Built as m8
B31: Mutation 1-42 (antibody, V domains shown)
VH: B1 VH with Y52N, I55L
VL: B1 VL with A29V, Q54N, Q97H
notes: Built as m8
B32: Mutation 1-34 (antibody, V domains shown)
VH: B1 VH with V34L, Y52Q, Q103N
VL: B1 VL with Q54N, Q97H
notes: Built as m8

Where a chain is given by its changes, count along the chain named.

This assay deals with T1, cTnI quality control product recombinant protein (human, UniProt P19429 2-210, limits assumed).
T1 construct: treated as the same molecule; also called cTnI antigen; cardiac troponin I
T1 sequence (P19429 2-210 limits assumed): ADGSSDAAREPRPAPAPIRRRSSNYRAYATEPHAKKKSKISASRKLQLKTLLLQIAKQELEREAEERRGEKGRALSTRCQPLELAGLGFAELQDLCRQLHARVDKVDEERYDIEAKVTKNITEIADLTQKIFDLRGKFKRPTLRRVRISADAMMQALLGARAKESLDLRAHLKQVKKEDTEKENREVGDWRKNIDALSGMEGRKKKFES
Nature of the assay: AMC sensor, antibody immobilised, cTnI in solution. The procedure:
Operating process: it is equilibrated in Buffer 1 (PBST) for 60 s, the antibody is immobilized in an antibody solution for 300 s, incubated in Buffer 2 (PBST) for 180 s, bound in antigen solution for 420 s, dissociated in the Buffer 2 for 1200 s, 10 mM of GLY solution with pH 1.69 and Buffer 3 are used for sensor regeneration, and data is output. KD represents an equilibrium dissociation constant, namely the affinity; Kon represents a binding rate; and Kd is represents a dissociation rate.
In the case of B1, the Kd (commonly the equilibrium constant for the complex coming apart) is 1.47 nM; the koff – broadly, a measure of how fast the partners let go of each other – worked out at 5.71e-05 s⁻¹; the kon (commonly the rate constant with which the complex forms) was found to be 38800 M⁻¹ s⁻¹.

Consider B2, for which the Kd amounted to 6.6 nM, the off-rate constant (koff) came out at 0.00053 s⁻¹ and the kon stood at 80300 M⁻¹ s⁻¹.

In the case of B3, the Kd amounted to 0.254 nM, the koff came to 1.72e-05 s⁻¹ and the kon was determined as 67700 M⁻¹ s⁻¹.

Regarding B4, the Kd was 3.05 nM, the koff came out at 0.000196 s⁻¹ and the kon was found to be 64100 M⁻¹ s⁻¹.

Take B5: the Kd was determined as 0.465 nM, the koff is 1.85e-05 s⁻¹ and the kon stood at 39800 M⁻¹ s⁻¹.

For B6, the Kd is 0.765 nM, the off-rate (koff) was 5.3e-05 s⁻¹ and the kon came out at 69300 M⁻¹ s⁻¹.

In the case of B7, the Kd is 1.85 nM, the koff is 4.05e-05 s⁻¹ and the kon was 21900 M⁻¹ s⁻¹.

Take B8: the Kd was 0.353 nM, the koff was 7.31e-06 s⁻¹ and the kon was 20700 M⁻¹ s⁻¹.

For B9, the Kd amounted to 8.38 nM, the koff came out at 0.000543 s⁻¹ and the kon was 64800 M⁻¹ s⁻¹.

Regarding B10, the Kd worked out at 9.41 nM, the koff is 0.00034 s⁻¹ and the kon turned out to be 36100 M⁻¹ s⁻¹.

As for B11, the Kd was found to be 3.8 nM, the koff is 0.000207 s⁻¹ and the kon was 54500 M⁻¹ s⁻¹.

B12: the Kd was determined as 0.106 nM, the koff turned out to be 2.86e-06 s⁻¹ and the kon amounted to 27000 M⁻¹ s⁻¹.

For the molecule B13, the Kd came out at 0.464 nM, the koff was 3.38e-05 s⁻¹ and the kon is 72900 M⁻¹ s⁻¹.

Regarding B14, the Kd was determined as 3.71 nM, the koff was 0.00022 s⁻¹ and the kon stood at 59500 M⁻¹ s⁻¹.

As for B15, the Kd was 6.56 nM, the koff amounted to 0.000205 s⁻¹ and the kon was 31300 M⁻¹ s⁻¹.

In the case of B16, the Kd was found to be 0.832 nM, the koff worked out at 4.31e-05 s⁻¹ and the association rate constant (kon) amounted to 51800 M⁻¹ s⁻¹.

As for B17, the Kd stood at 5.21 nM, the koff worked out at 0.000208 s⁻¹ and the kon came to 39900 M⁻¹ s⁻¹.

Consider B18, for which the Kd was 7.41 nM, the koff was 0.000286 s⁻¹ and the kon turned out to be 38600 M⁻¹ s⁻¹.

For B19, the Kd stood at 5.41 nM, the koff is 0.000217 s⁻¹ and the on-rate constant (kon) amounted to 40100 M⁻¹ s⁻¹.

Take B20: the Kd stood at 1.76 nM, the koff was determined as 0.000158 s⁻¹ and the kon was 89600 M⁻¹ s⁻¹.

In the case of B21, the Kd stood at 7.78 nM, the koff came out at 0.000321 s⁻¹ and the kon worked out at 41300 M⁻¹ s⁻¹.

Consider B22, for which the Kd was found to be 6.01 nM, the koff turned out to be 0.000492 s⁻¹ and the kon is 81800 M⁻¹ s⁻¹.

Regarding B23, the dissociation constant Kd turned out to be 8.49 nM, the koff was found to be 0.000353 s⁻¹ and the kon was determined as 41600 M⁻¹ s⁻¹.

On to B24, for which the Kd stood at 7.3 nM, the koff stood at 0.000223 s⁻¹ and the kon turned out to be 30500 M⁻¹ s⁻¹.

As to B25, the Kd turned out to be 0.553 nM, the koff stood at 4.32e-05 s⁻¹ and the kon stood at 78200 M⁻¹ s⁻¹.

Turning to B26, the Kd was determined as 4.61 nM, the koff was found to be 0.000233 s⁻¹ and the on-rate constant (kon) turned out to be 50500 M⁻¹ s⁻¹.

B27: the Kd was 3.29 nM, the koff came to 0.000118 s⁻¹ and the kon amounted to 36000 M⁻¹ s⁻¹.

For the molecule B28, the Kd was determined as 7.95 nM, the koff came out at 0.000331 s⁻¹ and the kon came out at 41700 M⁻¹ s⁻¹.

Consider B29, for which the Kd came to 0.63 nM, the koff amounted to 3.62e-05 s⁻¹ and the kon came out at 57400 M⁻¹ s⁻¹.

For the molecule B30, the Kd amounted to 1.08 nM, the koff came to 4.72e-05 s⁻¹ and the kon was determined as 43600 M⁻¹ s⁻¹.

On to B31, for which the Kd worked out at 0.821 nM, the koff came to 6.8e-05 s⁻¹ and the kon came to 82800 M⁻¹ s⁻¹.

Take B32: the Kd was 3.41 nM, the koff is 0.000198 s⁻¹ and the kon worked out at 58000 M⁻¹ s⁻¹.
